Experiment [1] has as its target T1, RIIA131R tetramer (biotinylated human FcγRIIA 131R complexed to streptavidin-PE) (human, UniProt P12318 34-217; P22629 37-163, limits assumed, PE conjugate; singly biotinylated).
T1 construct: Biotinylated FcR incubated with streptavidin-PE at a 4:1 molar ratio; Kd values measured against it are apparent (avid) values; also called RIIA tetramer; PE-tagged RIIA tetramer
As to the kind of experiment: yeast display titration with PE-tagged tetramer, flow cytometry; apparent (avid) Kd; parent clone IIA726 from the seventh FACS sort. How it is done: (§1) The yeast cells were washed and analyzed by flow cytometry.
(§2) Characterization of Individual Clones. Plasmid DNA was recovered from the later library generations (Zymoprep II kit) and transformed into competent DH5a bacteria (Invitrogen). Individual colonies (usually ten) were grown, miniprepped, and sequenced, as well as re-transformed into EBY100 yeast (EZ Yeast Transformation Kit, Zymo Research). The resulting clones were cultured in SD-CAA and induced in SG-CAA for analysis. To rapidly compare different clones, 0.1 OD.ml aliquots of yeast were labeled with a low and a high concentration of PE-tagged RIIA (1 nM, 30 nM) or RIIIA (0.3 nM, 10 nM) tetramer for 1 hour at RT prior to flow cytometry (Coulter Epics XL). The apparent tetramer Kd was estimated from the ratio of the two mean fluorescence readings. […] The labeling volumes (in PBSA) were chosen to give at least a 10-fold excess of FcR over Fn3. The yeast cells were centrifuged and washed with 0.5 ml PBSA for analysis by flow cytometry. The Kd value was determined by fitting the data to the equation y=A[tetramer]/([tetramer]+Kd)+B.
A general note: A flow cytometer gives signals particle by particle.

Experiment [2] deals with T2, RIIB tetramer (biotinylated human FcγRIIB complexed to streptavidin-PE) (human, UniProt P31994 43-217; P22629 37-163, limits assumed, PE conjugate; singly biotinylated).
T2 construct: Biotinylated FcR incubated with streptavidin-PE at a 4:1 molar ratio; also called PE-tagged RIIB tetramer
As to the kind of experiment: flow cytometry titration of yeast surface-displayed IIA726 with streptavidin-PE RIIB tetramer, 2 h at room temperature. How it is done: as §1, §2

For experiment [3], the target named is T1, RIIA131R tetramer (biotinylated human …). Kind of experiment: flow cytometry titration of yeast surface-displayed IIA726 with streptavidin-PE RIIA131R tetramer, 2 h at room temperature. On the procedure:
as §1, §2

Experiment [4] has as its target T2, RIIB tetramer (biotinylated human …). As to the kind of experiment: yeast display, flow cytometry with PE-tagged tetramer.
Experiment [5] has as its target T1, RIIA131R tetramer (biotinylated human …). As to the kind of experiment: yeast display with PE-tagged tetramer, flow cytometry; apparent (avid) Kd; clone IIA827, IIA726 with the single mutation printed 188S. On the procedure:
as §2

Another experiment addresses T3, human FcγRIIB, soluble (human, UniProt P31994 43-217, limits assumed).
T3 construct: also called hFcγRIIB
T3 sequence (looked up): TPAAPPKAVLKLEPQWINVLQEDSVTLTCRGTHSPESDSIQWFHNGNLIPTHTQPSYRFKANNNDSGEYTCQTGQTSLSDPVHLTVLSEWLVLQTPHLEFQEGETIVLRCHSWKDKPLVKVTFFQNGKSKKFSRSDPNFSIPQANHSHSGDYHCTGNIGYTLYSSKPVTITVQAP
As to the kind of experiment: SPR (Biacore T100), MBP-Fn3 immobilized, soluble FcR injected. How it is done: (§3) Surface Plasmon Resonance Analysis. Steady state affinity measurements were performed on a Biacore T100 biosensor. MBP-Fn3 fusion proteins were immobilized to CM5 sensor chips (Biacore) by standard amine coupling. […] Dissociation constants were calculated after subtraction of background binding to a control flow cell using Biacore T100 Evaluation software.

The target in experiment [6] is T4, human FcγRIIA, 131R allele, soluble (human, UniProt P12318 34-217, limits assumed).
T4 construct: also called hFcγRIIA
T4 sequence (looked up): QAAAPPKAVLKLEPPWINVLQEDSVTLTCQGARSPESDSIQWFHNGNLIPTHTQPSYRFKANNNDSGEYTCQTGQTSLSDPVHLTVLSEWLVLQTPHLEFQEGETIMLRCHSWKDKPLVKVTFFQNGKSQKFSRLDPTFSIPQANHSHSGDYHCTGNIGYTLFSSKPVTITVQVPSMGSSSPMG
The description is as above. How it is done:
as §3

In experiment [7] the target is T5, human FcγRIIA, 131H allele, soluble (human, UniProt P12318 34-217, limits assumed).
T5 construct: also called hFcγRIIA
T5 sequence (looked up): T4 sequence (looked up) with R134H
Described as above. On the procedure:
as §3

Experiment [8] has as its target T6, human FcγRIIIA on the surface of human peripheral blood mononuclear cells (non-lymphocyte gate) (human, UniProt P08637 17-254).
T6 construct: whole, on cells; The target is inferred from the stated aim of the experiment, which was recognition of FcRs expressed on cell surfaces; also called RIIIA on PBMCs
Kind of experiment: flow cytometry of human PBMCs with biotinylated MBP-Fn3 complexed to streptavidin-PE. An excerpt:
To determine whether the Fn3 domains were able to recognize FcRs expressed on cell surfaces, each MBP-Fn3 fusion protein was biotinylated, complexed with streptavidin-PE and used to label human peripheral blood mononuclear cells (PBMCs).

Experiment [9] deals with T4, human FcγRIIA, 131R allele, soluble. As to the kind of experiment: SPR (Biacore T100), steady state, MBP-Fn3 immobilized, soluble FcR injected. How it is done: as §3
(Surface plasmon resonance follows binding to a sensor surface in real time, without labels.)

Experiment [10] deals with T5, human FcγRIIA, 131H allele, soluble. The experiment is described as above. How it is done: as §3

Substitutions are numbered along the chain they refer to.

The term EC50 (read off the curve) denotes the concentration needed to bring the measured effect to its halfway point. Low readings indicate an effect from little substance, high ones a need for much substance.

T1 sequence (P22629 37-163 limits assumed, one chain of several): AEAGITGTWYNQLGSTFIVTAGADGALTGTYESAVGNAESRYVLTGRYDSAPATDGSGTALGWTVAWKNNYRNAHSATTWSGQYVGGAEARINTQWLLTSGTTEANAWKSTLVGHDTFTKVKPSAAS
T6 sequence (P08637 17-254): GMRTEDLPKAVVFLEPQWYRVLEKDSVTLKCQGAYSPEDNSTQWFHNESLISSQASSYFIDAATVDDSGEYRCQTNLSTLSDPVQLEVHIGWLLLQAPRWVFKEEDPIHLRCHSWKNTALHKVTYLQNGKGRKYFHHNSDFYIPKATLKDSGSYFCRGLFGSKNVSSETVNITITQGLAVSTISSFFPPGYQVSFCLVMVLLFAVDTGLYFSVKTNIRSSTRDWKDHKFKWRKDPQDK
T2 sequence (P22629 37-163 limits assumed, one chain of several): as the sequence (P22629 37-163 limits assumed, one chain of several) above

B1: IIA726 (mutant Fn3 domain, yeast surface-displayed clone) (designed binder)
chain: VSDVPGDLEVVAATPTSLLISWCTHLHWDYYRIFYGETGGNSPVQEFTVPALCPGATISGLKPGVDYTITAYAVTVGGDDWPISINYRTEIDEPSQ
notes: It contains a pair of Cys residues in the BC and DE loops; also called yeast surface-displaying IIA726
For B1, the Kd in experiment [1] worked out at 1.2 nM. The binding result in experiment [2] is listed as “no binding (tested: 100 nM)”. Also, the “EC50 (read off the curve)” value in experiment [3] was about 1 nM.

B2: IIA827 (mutant Fn3 domain, yeast surface-displayed clone) (designed binder)
chain: B1 chain with I83S
notes: Derived from IIA726 by a single mutation, printed '188S'; also called clone IIA827
In the case of B2, the binding result in experiment [4] was “no binding (tested: 100 nM)”. The Kd in experiment [5] stood at 0.54 nM.

B3: MBP-IIIA537 (designed binder)
chain: LGENLYFQSVSDVPRDLEVVVATPTSLLINWDLPFSDSYRITYGETGGNSPVQGFTVPGTESIATISGLKPGVDYTITVYAVASSGSNSYPISINYRTEIDKPSQ
notes: Fn3 domain as a C-terminal fusion to MBP, expressed in E. coli Rosetta(DE3); For PBMC labelling it was biotinylated and complexed with streptavidin-PE; also called MBP fusion of IIIA537; not shown: limits and vector linker not stat
Take B3: the binding result was “no binding” with human FcγRIIB, soluble; “no binding” in experiment [6]; “no binding” in [7]; “binds” in experiment [8].

B4: MBP-IIIA626 (designed binder)
chain: B3 chain with L33M, T42A, G54E, E61D, I63L, A83T
notes: Fn3 domain as a C-terminal fusion to MBP, expressed in E. coli Rosetta(DE3); For PBMC labelling it was biotinylated and complexed with streptavidin-PE; also called MBP fusion of IIIA626; not shown: limits and vector linker not stat
As for B4, the binding result with human FcγRIIB, soluble was “no binding”; in experiment [6] it was “no binding”; in experiment [7], “no binding”; in [8], “binds”.

B5: MBP-IIA726 (designed binder)
chain: LGENLYFQSVSDVPGDLEVVAATPTSLLISWCTHLHWDYYRIFYGETGGNSPVQEFTVPALCPGATISGLKPGVDYTITAYAVTVGGDDWPISINYRTEIDEPSQ
notes: Fn3 domain as a C-terminal fusion to MBP; It was first expressed in Rosetta(DE3), then in Rosetta-gami 2 to promote the disulfide bond between the BC and DE loops; For PBMC labelling it was biotinylated and complexed with streptavidin-PE; also called MBP fusion of IIA726; not shown: limits and vector linker not stat
On to B5, for which, in the experiment with human FcγRIIB, soluble, the binding result is “no binding”.

B6: MBP-IIA827 (designed binder)
chain: B5 chain with I92S
notes: Produced in Rosetta-gami 2; not shown: limits and vector linker not stat
Turning to B6, the figures for the Kd in [9] and in experiment [10] were 850 nM and 6200 nM, respectively.

The values are drawn from patent US20100221248A1 (MIT, published 2010).
